Test results published in US20250000992A1 (Eli Lilly, published 2025).

Columns and labels:
[1] = target: T1, Sortilin receptor on HEK293 cells (UniProt Q99523 78-831, limits assumed); assay: told with the HEK293 cathepsin D assay (FIG. 5); no direct binding assay described
T1 construct: whole, on cells

[2] = target: Human TfR on HEK293 cells (human, UniProt P02786 1-760); assay: cell-based or functional assay
[3] = target: T2, Cynomolgus TfR1 ECD, His tagged (cynomolgus, UniProt H9EXL1 89-760 (rhesus entry)); assay: SPR, Biacore T200, 25 C, His-tagged ECD amine coupled to CM3 chip, construct injected, 1:1 fit
T2 construct: extracellular domain; Purchased from SYNGENE; also called cyno TfR1; cyno Tfr1; not shown: His tag
Experimental: (§1) To determine the binding kinetics and affinity of H09-PGRN and BACDE to human TfR1 (hTfR1), human TfR2 (hTfR2) and cynomolgus TfR1, binding affinities and kinetics for antibody to antigen were determined using a BIACORE® T200 instrument. The binding kinetics and affinity of antibodies H09-PGRN and BACDE to human TfR1 ECD were determined using surface plasmon resonance biosensor such as BIAcore® T200 (GE Healthcare, Piscataway, N.J.). Briefly described, BIAcore® T200 instrument is used to measure the binding kinetics for Sandwich Ex. 1 (H09-PGRN-C90.43) and Sandwich Ex. 2 (H09-PGRNΔpGF-C90.43 to hTfR1, hTfR2 and cyno Tfr1 via surface plasmon resonance (SPR) at 25° C. Samples are dissolved in 1×HBS-EP+running buffer (Teknova cat. #H802) and His tagged ECD of the hTfR1, hTfR2, and cyno TfR was amine coupled to the Cytiva CM3 Series S sensor chip.
(§2) Binding is evaluated using multiple analytical cycles. Each cycle is performed at 25° C. at a flow rate of 50 μl/min for ligand association and dissociation. Each kinetic cycle consists of the following steps: injection of the Sandwich Ex. 1 (H09-PGRN-C90.43) and Sandwich Ex. 2 (H09-PGRNΔpGF-C90.43) over all four flow cells (starting at 125 nM and using two-fold serial dilutions for each cycle) for 240 seconds and followed by 900 seconds for dissociation phase, and regeneration using 3 M MgCl2 […] over a 30 s contact time. Association (i e., kₒₙ) and dissociation rates (i.e., Koff) for each are evaluated using standard double referencing and fit to “1:1 (Langmuir) binding” model in the BiaEvaluation software in batch mode. The affinity (KD) is calculated from the binding kinetics according to the relationship K)=Koff/Kon.

[4] = target: T3, Human TfR1 ECD, hexa-histidine tagged (human, UniProt P02786 89-760); assay: as above
T3 construct: extracellular domain; Made in 293 cells, purified by IMAC and SEC; amine coupled to a CM3 chip; also called hTfR1; not shown: hexa-histidine tag
Experimental: as §1, §2

[5] = target: T1, Sortilin receptor on HEK293 cells; assay: cell-based or functional assay

| Binder | binding result [1] | Mature Cathepsin D levels in cell lysate (ELISA), HEK293 cells, 100 ng/mL, 24 hours [2] | Kd [3] [nM] | koff [3] [s⁻¹] | kon [3] [M⁻¹ s⁻¹] | Kd [4] [nM] | koff [4] [s⁻¹] | kon [4] [M⁻¹ s⁻¹] | Mature Cathepsin D levels in cell lysate (ELISA), HEK293 cells, 100 ng/mL, 24 hours [5] |
| --- | --- | --- | --- | --- | --- | --- | --- | --- | --- |
| Sandwich Ex. 4 (H3.03-PGRN-C90.43) (Fab, Fab fusion with the H3.03 Fab in place of 8D3) heavy: EVQLVESGGGLVKPGGSLRLSCVASGFTFSSYSMNWVRQAPGKGLEWVSSISRSSSYIYYADSVKGRFTISRDNAKNSLYLQMNSLRAEDTAVYYCARIHGYSNSDAFDKWGQGTLVTVSSASTKGPCVFPLAPSSKSTSGGTAALGCLVKDYFPEPVTVSWNSGALTSGVHTFPAVLQSSGLYSLSSVVTVPSSSLGTQTYICNVNHKPSNTKVDKKVEPKSCDKTHTGGGGQGGGGQGGGGQTRCPDGQFCPVACCLDPGGASYSCCRPLLDKWPTTLSRHLGGPCQVDAHCSAGHSCIFTVSGTSSCCPFPEAVACGDGHHCCPRGFHCSADGRSCFQRSGNNSVGAIQCPDSQFECPDFSTCCVMVDGSWGCCPMPQASCCEDRVHCCPHGAFCDLVHTRCITPTGTHPLAKKLPAQRTNRAVALSSSVMCPDARSRCPDGSTCCELPSGKYGCCPMPNATCCSDHLHCCPQDTVCDLIQSKCLSKENATTDLLTKLPAHTVGDVKCDMEVSCPDGYTCCRLQSGAWGCCPFTQAVCCEDHIHCCPAGFTCDTQKGTCEQGPHQVPWMEKAPAHLSLPDPQALKRDVPCDNVSSCPSSDTCCQLTSGEWGCCPIPEAVCCSDHQHCCPQGYTCVAEGQCQRGSEIVAGLEKMPARRASLSHPRDIGCDQHTSCPVGQTCCPSLGGSWACCQLPHAVCCEDRQHCCPAGYTCNVKARSCEKEVVSAQPATFLARSPHVGVKDVECGEGHFCHDNQTCCRDNRQGWACCPYRQGVCCADRRHCCPAGFRCAARGTKCLRREAPRWDAPLRDPALRQLLGGGGQGGGGQGGGGQEVQLLESGGGLVQPGGSLRLSCAASGRYIDETAVAWFRQAPGKGREFVAGIGGGVDITYYADSVKGRFTISRDNSKNTLYLQMNSLRPEDTAVYYCGARPGRPLITSKVADLYPYWGQGTLVTVSSPP light: DIQMTQSPSAMSASVGDRVTITCRASQGISNYLAWFQQKPGKVPKRLIYAASSLQSGVPSRFSGSGSGTEFTLTISSLQPEDFATYYCLQHNSYPRTFGQGTKVEIKRTVAAPSVFIFPPSDEQLKSGTASVVCLLNNFYPREAKVQWKVDNALQSGNSQESVTEQDSKDSTYSLSSTLTLSKADYEKHKVYACEVTHQGLSSPVTKSFNRGEC | no binding | 66 |  |  |  |  |  |  |  |
| Sandwich Ex. 3 (8D3-PGRN-C90.43) (Fab, Fab fusion with the 8D3 Fab in place of H09) heavy: EVQLVESGGGLVQPGNSLTLSCVASGFTFSNYGMHWIRQAPKKGLEWIAMIYYDSSKMNYADTVKGRFTISRDNSKNTLYLEMNSLRSEDTAMYYCAVPTSHYVVDVWGQGVSVTVSSASTKGPCVFPLAPSSKSTSGGTAALGCLVKDYFPEPVTVSWNSGALTSGVHTFPAVLQSSGLYSLSSVVTVPSSSLGTQTYICNVNHKPSNTKVDKKVEPKSCDKTHTGGGGQGGGGQGGGGQTRCPDGQFCPVACCLDPGGASYSCCRPLLDKWPTTLSRHLGGPCQVDAHCSAGHSCIFTVSGTSSCCPFPEAVACGDGHHCCPRGFHCSADGRSCFQRSGNNSVGAIQCPDSQFECPDFSTCCVMVDGSWGCCPMPQASCCEDRVHCCPHGAFCDLVHTRCITPTGTHPLAKKLPAQRTNRAVALSSSVMCPDARSRCPDGSTCCELPSGKYGCCPMPNATCCSDHLHCCPQDTVCDLIQSKCLSKENATTDLLTKLPAHTVGDVKCDMEVSCPDGYTCCRLQSGAWGCCPFTQAVCCEDHIHCCPAGFTCDTQKGTCEQGPHQVPWMEKAPAHLSLPDPQALKRDVPCDNVSSCPSSDTCCQLTSGEWGCCPIPEAVCCSDHQHCCPQGYTCVAEGQCQRGSEIVAGLEKMPARRASLSHPRDIGCDQHTSCPVGQTCCPSLGGSWACCQLPHAVCCEDRQHCCPAGYTCNVKARSCEKEVVSAQPATFLARSPHVGVKDVECGEGHFCHDNQTCCRDNRQGWACCPYRQGVCCADRRHCCPAGFRCAARGTKCLRREAPRWDAPLRDPALRQLLGGGGQGGGGQGGGGQEVQLLESGGGLVQPGGSLRLSCAASGRYIDETAVAWFRQAPGKGREFVAGIGGGVDITYYADSVKGRFTISRDNSKNTLYLQMNSLRPEDTAVYYCGARPGRPLITSKVADLYPYWGQGTLVTVSSPP light: DIQMTQSPASLSASLEEIVTITCQASQDIGNWLAWYQQKPGKSPQLLIYGATSLADGVPSRFSGSRSGTQFSLKISRVQVEDIGIYYCLQAYNTPWTFGGGTKLELKRTVAAPSVFIFPPSDEQLKSGTASVVCLLNNFYPREAKVQWKVDNALQSGNSQESVTEQDSKDSTYSLSSTLTLSKADYEKHKVYACEVTHQGLSSPVTKSFNRGEC | no binding |  |  |  |  |  |  |  | 100 |

Further lines, results first:

| binding result [1] | Mature Cathepsin D levels in cell lysate (ELISA), HEK293 cells, 100 ng/mL, 24 hours [2] | Kd [3] [nM] | koff [3] [s⁻¹] | kon [3] [M⁻¹ s⁻¹] | Kd [4] [nM] | koff [4] [s⁻¹] | kon [4] [M⁻¹ s⁻¹] | Mature Cathepsin D levels in cell lysate (ELISA), HEK293 cells, 100 ng/mL, 24 hours [5] | Binder |
| --- | --- | --- | --- | --- | --- | --- | --- | --- | --- |
|  |  | 9.7 | 0.0047 | 485000 | 7.29 | 0.00434 | 595000 |  | Sandwich Ex. 1 (H09-PGRN-C90.43) (Fab, also called H09 Fab-PGRN-C90.43) heavy: EVQLVESGGGLVKPGGSLRLSCVASGFTFSSYSMNWVRQAPGKGLEWVSSISSSSSYIYYADSVKGRFTISRDNAKNSLYLQMNSLRAEDTAVYYCARRHGYSNSDAFDNWGQGTLVTVSSASTKGPSVFPLAPSSKSTSGGTAALGCLVKDYFPEPVTVSWNSGALTSGVHTFPAVLQSSGLYSLSSVVTVPSSSLGTQTYICNVNHKPSNTKVDKKVEPKSCDKTHTGGGGQGGGGQGGGGQTRCPDGQFCPVACCLDPGGASYSCCRPLLDKWPTTLSRHLGGPCQVDAHCSAGHSCIFTVSGTSSCCPFPEAVACGDGHHCCPRGFHCSADGRSCFQRSGNNSVGAIQCPDSQFECPDFSTCCVMVDGSWGCCPMPQASCCEDRVHCCPHGAFCDLVHTRCITPTGTHPLAKKLPAQRTNRAVALSSSVMCPDARSRCPDGSTCCELPSGKYGCCPMPNATCCSDHLHCCPQDTVCDLIQSKCLSKENATTDLLTKLPAHTVGDVKCDMEVSCPDGYTCCRLQSGAWGCCPFTQAVCCEDHIHCCPAGFTCDTQKGTCEQGPHQVPWMEKAPAHLSLPDPQALKRDVPCDNVSSCPSSDTCCQLTSGEWGCCPIPEAVCCSDHQHCCPQGYTCVAEGQCQRGSEIVAGLEKMPARRASLSHPRDIGCDQHTSCPVGQTCCPSLGGSWACCQLPHAVCCEDRQHCCPAGYTCNVKARSCEKEVVSAQPATFLARSPHVGVKDVECGEGHFCHDNQTCCRDNRQGWACCPYRQGVCCADRRHCCPAGFRCAARGTKCLRREAPRWDAPLRDPALRQLLGGGGQGGGGQGGGGQEVQLLESGGGLVQPGGSLRLSCAASGRYIDETAVAWFRQAPGKGREFVAGIGGGVDITYYADSVKGRFTISRDNSKNTLYLQMNSLRPEDTAVYYCGARPGRPLITSKVADLYPYWGQGTLVTVSSPP light: DIQMTQSPSAMSASVGDRVTITCRASQGISHYLVWFQQKPGKVPKRLIYAASSLQSGVPSRFSGSGSGTEFTLTISSLQPEDFATYYCLQHNSYPWTFGQGTKVEIKRTVAAPSVFIFPPSDEQLKSGTASVVCLLNNFYPREAKVQWKVDNALQSGNSQESVTEQDSKDSTYSLSSTLTLSKADYEKHKVYACEVTHQGLSSPVTKSFNRGEC |
|  |  | 13 | 0.00318 | 244000 | 7.12 | 0.0052 | 730000 |  | Sandwich Ex. 2 (H09-PGRNΔpGF-C90.43) (Fab, also called H09 Fab-PGRNΔpGF-C90.43; H09-dPGF-C90.43) heavy: EVQLVESGGGLVKPGGSLRLSCVASGFTFSSYSMNWVRQAPGKGLEWVSSISSSSSYIYYADSVKGRFTISRDNAKNSLYLQMNSLRAEDTAVYYCARRHGYSNSDAFDNWGQGTLVTVSSASTKGPSVFPLAPSSKSTSGGTAALGCLVKDYFPEPVTVSWNSGALTSGVHTFPAVLQSSGLYSLSSVVTVPSSSLGTQTYICNVNHKPSNTKVDKKVEPKSCDKTGGGGQGGGGQGGGGQTPTGTHPLAKKLPAQRTNRAVALSSSVMCPDARSRCPDGSTCCELPSGKYGCCPMPNATCCSDHLHCCPQDTVCDLIQSKCLSKENATTDLLTKLPAHTVGDVKCDMEVSCPDGYTCCRLQSGAWGCCPFTQAVCCEDHIHCCPAGFTCDTQKGTCEQGPHQVPWMEKAPAHLSLPDPQALKRDVPCDNVSSCPSSDTCCQLTSGEWGCCPIPEAVCCSDHQHCCPQGYTCVAEGQCQRGSEIVAGLEKMPARRASLSHPRDIGCDQHTSCPVGQTCCPSLGGSWACCQLPHAVCCEDRQHCCPAGYTCNVKARSCEKEVVSAQPATFLARSPHVGVKDVECGEGHFCHDNQTCCRDNRQGWACCPYRQGVCCADRRHCCPAGFRCAARGTKCLRREAPRWDAPLRDPALRQLLGGGGQGGGGQGGGGQEVQLLESGGGLVQPGGSLRLSCAASGRYIDETAVAWFRQAPGKGREFVAGIGGGVDITYYADSVKGRFTISRDNSKNTLYLQMNSLRPEDTAVYYCGARPGRPLITSKVADLYPYWGQGTLVTVSSPP light: DIQMTQSPSAMSASVGDRVTITCRASQGISHYLVWFQQKPGKVPKRLIYAASSLQSGVPSRFSGSGSGTEFTLTISSLQPEDFATYYCLQHNSYPWTFGQGTKVEIKRTVAAPSVFIFPPSDEQLKSGTASVVCLLNNFYPREAKVQWKVDNALQSGNSQESVTEQDSKDSTYSLSSTLTLSKADYEKHKVYACEVTHQGLSSPVTKSFNRGEC |
